Assay results as given in IntAct's records for PubMed 16531226.

B1: Serine/threonine-protein phosphatase 5 (Homo sapiens), P53041 (parent)
chain: MAMAEGERTECAEPPRDEPPADGALKRAEELKTQANDYFKAKDYENAIKFYSQAIELNPSNAIYYGNRSLAYLRTECYGYALGDATRAIELDKKYIKGYYRRAASNMALGKFRAALRDYETVVKVKPHDKDAKMKYQECNKIVKQKAFERAIAGDEHKRSVVDSLDIESMTIEDEYSGPKLEDGKVTISFMKELMQWYKDQKKLHRKCAYQILVQVKEVLSKLSTLVETTLKETEKITVCGDTHGQFYDLLNIFELNGLPSETNPYIFNGDFVDRGSFSVEVILTLFGFKLLYPDHFHLLRGNHETDNMNQIYGFEGEVKAKYTAQMYELFSEVFEWLPLAQCINGKVLIMHGGLFSEDGVTLDDIRKIERNRQPPDSGPMCDLLWSDPQPQNGRSISKRGVSCQFGPDVTKAFLEENNLDYIIRSHEVKAEGYEVAHGGRCVTVFSAPNYCDQMGNKASYIHLQGSDLRPQFHQFTAVPHPNVKPMAYANTLLQLGMM

Variants of: B1
Details: with hs90b_human HSP90AB1, P08238
Sequence of hs90b_human HSP90AB1, P08238 (P08238 whole entry): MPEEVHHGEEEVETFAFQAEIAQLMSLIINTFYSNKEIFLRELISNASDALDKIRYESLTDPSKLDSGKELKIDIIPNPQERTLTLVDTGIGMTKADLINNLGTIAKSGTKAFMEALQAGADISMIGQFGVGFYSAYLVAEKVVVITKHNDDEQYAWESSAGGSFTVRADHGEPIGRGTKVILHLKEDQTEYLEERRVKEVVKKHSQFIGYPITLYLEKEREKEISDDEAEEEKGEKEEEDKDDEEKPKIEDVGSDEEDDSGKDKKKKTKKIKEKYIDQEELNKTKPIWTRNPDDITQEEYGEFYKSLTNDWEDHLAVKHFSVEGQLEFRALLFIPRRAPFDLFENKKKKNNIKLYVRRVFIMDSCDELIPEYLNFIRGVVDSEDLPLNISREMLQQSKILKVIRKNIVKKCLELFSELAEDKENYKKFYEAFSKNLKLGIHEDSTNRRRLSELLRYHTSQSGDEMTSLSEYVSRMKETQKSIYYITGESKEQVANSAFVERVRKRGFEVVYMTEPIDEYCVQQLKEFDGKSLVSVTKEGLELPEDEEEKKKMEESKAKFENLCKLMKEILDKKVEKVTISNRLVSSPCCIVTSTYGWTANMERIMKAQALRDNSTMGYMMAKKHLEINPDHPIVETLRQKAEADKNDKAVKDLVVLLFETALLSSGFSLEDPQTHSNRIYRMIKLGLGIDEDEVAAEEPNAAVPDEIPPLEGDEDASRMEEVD
With G83N the “effect of a mutation on the interaction” value was “increasing interaction”.
